# PMC11871066, “Structure-based discovery of hydrocarbon-stapled paxillin peptides that block FAK scaffolding in cancer” (Nature Communications, 2025)
# What was measured:
# [1] = biological target: Recombinant FAK FAT protein (fluorescence polarization assay) (human) (UniProt Q05397); experiment: FP
# [2] = biological target: Biotinylated AviTag FAK FAT protein (UniProt Q05397); experiment: SPR; conditions: left panel, two-site binding model, peptide 200 µM to 49 nM, n = 5, X = olefinic amino acids joined by an i,i + 7 hydrocarbon staple
# Biotinylated AviTag FAK FAT protein, sequence (Q05397 whole entry): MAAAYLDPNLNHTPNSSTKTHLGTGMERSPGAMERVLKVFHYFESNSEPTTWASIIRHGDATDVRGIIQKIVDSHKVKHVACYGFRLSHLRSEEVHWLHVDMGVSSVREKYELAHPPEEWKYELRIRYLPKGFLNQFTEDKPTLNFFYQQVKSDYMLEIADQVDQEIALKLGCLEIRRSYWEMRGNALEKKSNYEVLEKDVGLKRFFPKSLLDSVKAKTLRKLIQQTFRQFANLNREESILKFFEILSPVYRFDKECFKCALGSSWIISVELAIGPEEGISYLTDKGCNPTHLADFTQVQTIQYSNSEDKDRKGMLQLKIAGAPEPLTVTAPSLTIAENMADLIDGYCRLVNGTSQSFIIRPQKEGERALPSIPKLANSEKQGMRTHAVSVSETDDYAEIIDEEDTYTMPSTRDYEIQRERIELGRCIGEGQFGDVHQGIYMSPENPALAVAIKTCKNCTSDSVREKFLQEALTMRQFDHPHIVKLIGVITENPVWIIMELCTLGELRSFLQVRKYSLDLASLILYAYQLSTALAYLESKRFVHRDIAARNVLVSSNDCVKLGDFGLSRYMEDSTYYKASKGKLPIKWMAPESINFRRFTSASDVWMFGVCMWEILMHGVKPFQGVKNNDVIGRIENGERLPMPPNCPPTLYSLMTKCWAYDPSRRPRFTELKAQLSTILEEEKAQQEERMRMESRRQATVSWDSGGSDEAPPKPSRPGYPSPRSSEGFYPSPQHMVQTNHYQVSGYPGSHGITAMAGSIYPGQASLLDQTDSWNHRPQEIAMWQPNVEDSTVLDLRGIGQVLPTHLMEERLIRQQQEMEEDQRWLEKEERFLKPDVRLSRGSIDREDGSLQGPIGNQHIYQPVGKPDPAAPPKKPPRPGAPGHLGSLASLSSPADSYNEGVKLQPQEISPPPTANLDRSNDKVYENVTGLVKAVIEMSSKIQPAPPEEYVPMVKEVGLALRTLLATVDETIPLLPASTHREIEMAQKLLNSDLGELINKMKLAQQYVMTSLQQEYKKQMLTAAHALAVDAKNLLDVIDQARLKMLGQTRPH
# Recombinant FAK FAT protein (fluorescence polarization assay) (human), sequence (Q05397 whole entry): as above
# Negative control peptide 2014 (1907 with L145E and L152E), sequence (P49023 whole entry L145E/L152E, looked up, tested part not stated): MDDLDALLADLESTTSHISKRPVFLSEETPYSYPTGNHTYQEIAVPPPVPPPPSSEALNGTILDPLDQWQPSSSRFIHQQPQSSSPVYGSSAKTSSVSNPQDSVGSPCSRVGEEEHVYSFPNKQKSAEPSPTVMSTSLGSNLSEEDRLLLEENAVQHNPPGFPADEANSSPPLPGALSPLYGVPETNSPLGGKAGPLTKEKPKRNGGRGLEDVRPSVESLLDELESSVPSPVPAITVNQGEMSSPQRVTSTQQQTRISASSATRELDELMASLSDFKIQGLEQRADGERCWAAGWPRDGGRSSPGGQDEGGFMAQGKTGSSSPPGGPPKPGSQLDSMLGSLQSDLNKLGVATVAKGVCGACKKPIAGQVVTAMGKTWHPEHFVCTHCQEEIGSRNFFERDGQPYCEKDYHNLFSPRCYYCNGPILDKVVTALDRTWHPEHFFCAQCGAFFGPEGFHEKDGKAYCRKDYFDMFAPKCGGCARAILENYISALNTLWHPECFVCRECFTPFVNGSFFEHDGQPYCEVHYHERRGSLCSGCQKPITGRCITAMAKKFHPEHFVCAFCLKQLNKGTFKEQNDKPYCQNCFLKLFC
substance,measurement,setting,value
Negative control peptide 2014 (1907 with L145E and L152E) (from UniProt P49023 141-153),Ki,[1],> 1250 µM
Paxillin LD2 peptide (141-…-153) S143X; L150X,Kd,[2]; KD1,0.8 µM
same,Kd,[2]; KD2,8.7 µM
